From the Human Domainome abundance scans (Beltran et al. 2025) come the findings set out here.

± gives the uncertainty stated by the source.

B1: Glucocorticoid receptor, residues 419 to 494; numbered along this chain, P04150 (parent)
chain: KLCLVCSDEASGCHYGVLTCGSCKVFFKRAVEGQHNYLCAGRNDCIIDKIRRKNCPACRYRKCLQAGMNLEARKTK

The variants in this data set derive from B1. Briefly: abundance fitness (aPCA) (normalised: wild type 0, dead -1); higher = more abundant; growth selection in yeast, the domain comes from the species named. Particulars: Homo sapiens.
As for KLCLVCSDEASGCHYGVLTCGSCKVFFKRAVEGQHNYLCAGRNDCIIAKIRRKNCPACRYRKCLQAGMNLEARKTK [D48A], the abundance fitness was -0.327 ± 0.037.
Then KLCLVCSDEASGCHYGVLTCGSCKVFFKRAVEGQHNYLCAGRNDCIICKIRRKNCPACRYRKCLQAGMNLEARKTK [D48C], with -0.529 ± 0.11; and KLCLVCSDEASGCHYGVLTCGSCKVFFKRAVEGQHNYLCAGRNDCIKDKIRRKNCPACRYRKCLQAGMNLEARKTK [I47K], with -0.267 ± 0.064.
Then KLCLVCSDEASGCHYGVLTCGSCKVFFKRAVEGQHNYLCAGRNDCIWDKIRRKNCPACRYRKCLQAGMNLEARKTK [I47W], with -0.542 ± 0.058.
The value for KLCLVCSDEASGCHYGVLTCGSCKVFFKRAVEGQHNYLCAGRNDCIFDKIRRKNCPACRYRKCLQAGMNLEARKTK [I47F] was -0.449 ± 0.11.
For KLCLVCSDEASGCHYGVLTCGSCKVFFKRAVEGQHNYLCAGRNDCIDDKIRRKNCPACRYRKCLQAGMNLEARKTK [I47D], the abundance fitness is -0.072 ± 0.086.
Then KLCLVCSDEASGCHYGVLTCGSCKVFFKRAVEGQHNYLCAGRNDCIRDKIRRKNCPACRYRKCLQAGMNLEARKTK [I47R], with -0.406 ± 0.035; and KLCLVCSDEASGCHYGVLTCGSCKVFFKRAVEGQHNYLCAGRNDCISDKIRRKNCPACRYRKCLQAGMNLEARKTK [I47S], with -0.252 ± 0.04.
Then KLCLVCSDEASGCHYGVLTCGSCKVFFKRAVEGQHNYLCAGRNDCIMDKIRRKNCPACRYRKCLQAGMNLEARKTK [I47M], with -0.143 ± 0.049; and KLCLVCSDEASGCHYGVLTCGSCKVFFKRAVEGQHNYLCAGRNDCIPDKIRRKNCPACRYRKCLQAGMNLEARKTK [I47P], with -0.442 ± 0.063.
Turning to KLCLVCSDEASGCHYGVLTCGSCKVFFKRAVEGQHNYLCAGRNDCIQDKIRRKNCPACRYRKCLQAGMNLEARKTK [I47Q], the abundance fitness was -0.183 ± 0.056.
Then KLCLVCSDEASGCHYGVLTCGSCKVFFKRAVEGQHNYLCAGRNDCICDKIRRKNCPACRYRKCLQAGMNLEARKTK [I47C], with -0.438 ± 0.089; and KLCLVCSDEASGCHYGVLTCGSCKVFFKRAVEGQHNYLCAGRNDCIADKIRRKNCPACRYRKCLQAGMNLEARKTK [I47A], with -0.368 ± 0.043; and KLCLVCSDEASGCHYGVLTCGSCKVFFKRAVEGQHNYLCAGRNDCIGDKIRRKNCPACRYRKCLQAGMNLEARKTK [I47G], with -0.304 ± 0.034.
The value for KLCLVCSDEASGCHYGVLTCGSCKVFFKRAVEGQHNYLCAGRNDCINDKIRRKNCPACRYRKCLQAGMNLEARKTK [I47N] was -0.164 ± 0.1; that for KLCLVCSDEASGCHYGVLTCGSCKVFFKRAVEGQHNYLCAGRNDCIVDKIRRKNCPACRYRKCLQAGMNLEARKTK [I47V] was 0.015 ± 0.033.
The value for KLCLVCSDEASGCHYGVLTCGSCKVFFKRAVEGQHNYLCAGRNDCIHDKIRRKNCPACRYRKCLQAGMNLEARKTK [I47H] was -0.304 ± 0.18; that for KLCLVCSDEASGCHYGVLTCGSCKVFFKRAVEGQHNYLCAGRNDCITDKIRRKNCPACRYRKCLQAGMNLEARKTK [I47T] was -0.125 ± 0.039.
As for KLCLVCSDEASGCHYGVLTCGSCKVFFKRAVEGQHNYLCAGRNDCIEDKIRRKNCPACRYRKCLQAGMNLEARKTK [I47E], the abundance fitness was -0.216 ± 0.046.
Take KLCLVCSDEASGCHYGVLTCGSCKVFFKRAVEGQHNYLCAGRNDCILDKIRRKNCPACRYRKCLQAGMNLEARKTK [I47L]: the abundance fitness is -0.135 ± 0.034.
The value for KLCLVCSDEASGCHYGVLTCGSCKVFFKRAVEGQHNYLCAGRNDYIIDKIRRKNCPACRYRKCLQAGMNLEARKTK [C45Y] was -0.704 ± 0.22; that for KLCLVCSDEASGCHYGVLTCGSCKVFFKRAVEGQHNYLCAGRNDCRIDKIRRKNCPACRYRKCLQAGMNLEARKTK [I46R] was -0.012 ± 0.027.
For the variant KLCLVCSDEASGCHYGVLTCGSCKVFFKRAVEGQHNYLCAGRNDCNIDKIRRKNCPACRYRKCLQAGMNLEARKTK [I46N], the abundance fitness was -0.002 ± 0.074.
For the variant KLCLVCSDEASGCHYGVLTCGSCKVFFKRAVEGQHNYLCAGRNDCSIDKIRRKNCPACRYRKCLQAGMNLEARKTK [I46S], the abundance fitness turned out to be 0.005 ± 0.038.
The value for KLCLVCSDEASGCHYGVLTCGSCKVFFKRAVEGQHNYLCAGRNDCLIDKIRRKNCPACRYRKCLQAGMNLEARKTK [I46L] was -0.039 ± 0.031.
Then KLCLVCSDEASGCHYGVLTCGSCKVFFKRAVEGQHNYLCAGRNDCAIDKIRRKNCPACRYRKCLQAGMNLEARKTK [I46A], with 0.031 ± 0.034; and KLCLVCSDEASGCHYGVLTCGSCKVFFKRAVEGQHNYLCAGRNDCHIDKIRRKNCPACRYRKCLQAGMNLEARKTK [I46H], with -0.045 ± 0.063; and KLCLVCSDEASGCHYGVLTCGSCKVFFKRAVEGQHNYLCAGRNDCYIDKIRRKNCPACRYRKCLQAGMNLEARKTK [I46Y], with 0.029 ± 0.052.
Then KLCLVCSDEASGCHYGVLTCGSCKVFFKRAVEGQHNYLCAGRNDCWIDKIRRKNCPACRYRKCLQAGMNLEARKTK [I46W], with -0.137 ± 0.036; and KLCLVCSDEASGCHYGVLTCGSCKVFFKRAVEGQHNYLCAGRNDCTIDKIRRKNCPACRYRKCLQAGMNLEARKTK [I46T], with 0.029 ± 0.049.
Regarding KLCLVCSDEASGCHYGVLTCGSCKVFFKRAVEGQHNYLCAGRNDCCIDKIRRKNCPACRYRKCLQAGMNLEARKTK [I46C], the abundance fitness was -0.025 ± 0.045.
Regarding KLCLVCSDEASGCHYGVLTCGSCKVFFKRAVEGQHNYLCAGRNDCFIDKIRRKNCPACRYRKCLQAGMNLEARKTK [I46F], the abundance fitness was 0.087 ± 0.068.
As to KLCLVCSDEASGCHYGVLTCGSCKVFFKRAVEGQHNYLCAGRNDCPIDKIRRKNCPACRYRKCLQAGMNLEARKTK [I46P], the abundance fitness was -0.048 ± 0.042.
Then KLCLVCSDEASGCHYGVLTCGSCKVFFKRAVEGQHNYLCAGRNDCQIDKIRRKNCPACRYRKCLQAGMNLEARKTK [I46Q], with 0.064 ± 0.049; and KLCLVCSDEASGCHYGVLTCGSCKVFFKRAVEGQHNYLCAGRNDCVIDKIRRKNCPACRYRKCLQAGMNLEARKTK [I46V], with -0.027 ± 0.031.
Then KLCLVCSDEASGCHYGVLTCGSCKVFFKRAVEGQHNYLCAGRNDCEIDKIRRKNCPACRYRKCLQAGMNLEARKTK [I46E], with -0.009 ± 0.037.
